B1: G protein-coupled receptor kinase 6 (Homo sapiens), P43250 (parent)
chain: MELENIVANTVLLKAREGGGGNRKGKSKKWRQMLQFPHISQCEELRLSLERDYHSLCERQPIGRLLFREFCATRPELSRCVAFLDGVAEYEVTPDDKRKACGRQLTQNFLSHTGPDLIPEVPRQLVTNCTQRLEQGPCKDLFQELTRLTHEYLSVAPFADYLDSIYFNRFLQWKWLERQPVTKNTFRQYRVLGKGGFGEVCACQVRATGKMYACKKLEKKRIKKRKGEAMALNEKQILEKVNSRFVVSLAYAYETKDALCLVLTLMNGGDLKFHIYHMGQAGFPEARAVFYAAEICCGLEDLHRERIVYRDLKPENILLDDHGHIRISDLGLAVHVPEGQTIKGRVGTVGYMAPEVVKNERYTFSPDWWALGCLLYEMIAGQSPFQQRKKKIKREEVERLVKEVPEEYSERFSPQARSLCSQLLCKDPAERLGCRGGSAREVKEHPLFKKLNFKRLGAGMLEPPFKPDPQAIYCKDVLDIEQFSTVKGVELEPTDQDFYQKFATGSVPIPWQNEMVETECFQELNVFGLDGSVPPDLDWKGQPPAPPKKGLLQRLFSRQDCCGNCSDSEEELPTRL

Variants of: B1
Settings: with rom1_bovin ROM1, P52205
Sequence of rom1_bovin ROM1, P52205 (P52205 whole entry): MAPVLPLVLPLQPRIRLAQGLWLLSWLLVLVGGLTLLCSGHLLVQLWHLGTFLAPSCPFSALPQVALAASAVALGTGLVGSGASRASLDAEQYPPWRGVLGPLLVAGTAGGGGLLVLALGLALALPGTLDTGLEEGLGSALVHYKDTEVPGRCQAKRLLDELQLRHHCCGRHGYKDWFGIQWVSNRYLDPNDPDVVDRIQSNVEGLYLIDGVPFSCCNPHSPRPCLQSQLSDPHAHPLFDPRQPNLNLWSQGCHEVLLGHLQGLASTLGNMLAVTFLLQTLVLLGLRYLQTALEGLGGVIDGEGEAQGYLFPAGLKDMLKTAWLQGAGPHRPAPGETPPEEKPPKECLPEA

**Q.** For N9A, which “effect of a mutation on the interaction” value is on record?
**A.** The value was “disrupting interaction”.

Variants of: B1
Settings: with rom1_bovin ROM1, P52205
Remark: another data set of the same source

**Q.** Which “effect of a mutation on the interaction” value does the source give for L3A here?
**A.** Its value is “decreasing interaction”.

Variants of: B1
Settings: with rom1_bovin ROM1, P52205
Remark: another data set of the same source

**Q.** Which “effect of a mutation on the interaction” value does the source give for L12A here?
**A.** The value was “disrupting interaction”.

Variants of: B1
Settings: with rom1_bovin ROM1, P52205
Remark: another data set of the same source

**Q.** E4A was tested. Which “effect of a mutation on the interaction” value did it give?
**A.** Its value is “decreasing interaction”.

Variants of: B1
Settings: with rom1_bovin ROM1, P52205
Remark: another data set of the same source

**Q.** With I6E as the variant, how does the “effect of a mutation on the interaction” value read?
**A.** The value was “disrupting interaction”.

**Q.** How did the “effect of a mutation on the interaction” value turn out when V7E was run?
**A.** The value was “disrupting interaction”.

Variants of: B1
Settings: with rom1_bovin ROM1, P52205
Remark: another data set of the same source

**Q.** Which “effect of a mutation on the interaction” value does the source give for I6A here?
**A.** The value was “decreasing interaction”.

Variants of: B1
Settings: with rom1_bovin ROM1, P52205
Remark: another data set of the same source

**Q.** V7A was tested. Which “effect of a mutation on the interaction” value did it give?
**A.** The value was “decreasing interaction”.

Variants of: B1
Settings: with rom1_bovin ROM1, P52205
Remark: another data set of the same source

**Q.** How did the “effect of a mutation on the interaction” value turn out when L13A was run?
**A.** Its value is “decreasing interaction”.
